In US20200085917A1:

Legend:
Test in all cases: GST pull-down, LC-MS/MS
[1] = target: T1, C1qbp_IPI:IPI00132799.4 (mouse) (UniProt O35658)
T1 sequence (looked up): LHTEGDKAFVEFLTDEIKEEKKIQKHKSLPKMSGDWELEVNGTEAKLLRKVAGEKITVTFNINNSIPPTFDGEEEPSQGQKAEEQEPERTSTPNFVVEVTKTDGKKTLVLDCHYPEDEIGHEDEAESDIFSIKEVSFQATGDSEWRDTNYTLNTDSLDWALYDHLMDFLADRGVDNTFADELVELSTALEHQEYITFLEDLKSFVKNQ

[2] = target: Tuba4a_IPI:IPI00117350.1 (mouse) (UniProt P68368)
[3] = target: Ndufb5_IPI:IPI00132531.1 (mouse) (UniProt Q9CQH3)
[4] = target: T2, Cplx2_IPI:IPI00111501.1 (mouse) (UniProt P84086)
T2 sequence (looked up): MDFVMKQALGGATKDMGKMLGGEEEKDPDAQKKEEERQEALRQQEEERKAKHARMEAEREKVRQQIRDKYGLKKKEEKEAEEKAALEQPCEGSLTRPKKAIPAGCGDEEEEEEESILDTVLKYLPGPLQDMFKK

[5] = target: T3, Pfn2_IPI:IPI00227805.6 (mouse) (UniProt Q9JJV2)
T3 sequence (looked up): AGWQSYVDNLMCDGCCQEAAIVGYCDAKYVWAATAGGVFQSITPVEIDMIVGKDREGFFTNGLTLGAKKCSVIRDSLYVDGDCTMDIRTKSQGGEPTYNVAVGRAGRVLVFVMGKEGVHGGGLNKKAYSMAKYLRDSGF

[6] = target: Cend1_IPI:IPI00122826.1 (mouse) (UniProt Q9JKC6)
[7] = target: T4, Ccdc127_IPI:IPI00131843.3 (mouse) (UniProt Q3TC33)
T4 sequence (looked up): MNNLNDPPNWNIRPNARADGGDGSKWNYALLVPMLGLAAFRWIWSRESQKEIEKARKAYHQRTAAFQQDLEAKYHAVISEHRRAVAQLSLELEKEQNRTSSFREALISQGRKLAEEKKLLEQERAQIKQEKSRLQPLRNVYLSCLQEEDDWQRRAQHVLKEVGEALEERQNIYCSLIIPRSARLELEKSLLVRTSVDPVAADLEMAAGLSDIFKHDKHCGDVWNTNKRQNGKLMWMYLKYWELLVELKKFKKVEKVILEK

[8] = target: Loh12cr1_IPI:IPI00457620.2 (mouse)
[9] = target: Slc1a2_IPI:IPI00230289.1 (mouse) (UniProt P43006)
[10] = target: Slc25a1_IPI:IPI00276926.3 (mouse) (UniProt Q8JZU2)
[11] = target: T5, Gbas_IPI:IPI00115827.1 (mouse) (UniProt O55126)
T5 sequence (looked up): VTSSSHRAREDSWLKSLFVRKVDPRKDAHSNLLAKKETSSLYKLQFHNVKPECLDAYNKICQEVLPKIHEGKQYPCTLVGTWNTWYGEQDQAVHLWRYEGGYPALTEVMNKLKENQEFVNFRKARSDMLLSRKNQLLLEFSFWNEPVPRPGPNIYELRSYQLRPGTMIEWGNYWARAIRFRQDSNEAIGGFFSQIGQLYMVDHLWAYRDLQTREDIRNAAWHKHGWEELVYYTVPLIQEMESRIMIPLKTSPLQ

[12] = target: mt-Co2_IPI:IPI00131176.1 (mouse) (UniProt P00405)
[13] = target: Vsnl1_IPI:IPI00230418.5 (mouse) (UniProt P62761)
[14] = target: T6, Hmgcl_IPI:IPI00127625.1 (mouse) (UniProt P38060)
T6 sequence (looked up): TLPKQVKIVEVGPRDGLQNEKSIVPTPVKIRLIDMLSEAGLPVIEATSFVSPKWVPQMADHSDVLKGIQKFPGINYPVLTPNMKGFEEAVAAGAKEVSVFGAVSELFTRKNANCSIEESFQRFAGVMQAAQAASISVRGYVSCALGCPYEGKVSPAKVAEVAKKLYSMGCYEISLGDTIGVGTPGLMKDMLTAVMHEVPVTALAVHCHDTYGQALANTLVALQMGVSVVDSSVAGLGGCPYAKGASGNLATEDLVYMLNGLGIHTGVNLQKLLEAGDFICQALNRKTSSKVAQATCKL

[15] = target: T7, Atp5f1_IPI:IPI00341282.2 (mouse) (UniProt Q9CQQ7)
T7 sequence (looked up): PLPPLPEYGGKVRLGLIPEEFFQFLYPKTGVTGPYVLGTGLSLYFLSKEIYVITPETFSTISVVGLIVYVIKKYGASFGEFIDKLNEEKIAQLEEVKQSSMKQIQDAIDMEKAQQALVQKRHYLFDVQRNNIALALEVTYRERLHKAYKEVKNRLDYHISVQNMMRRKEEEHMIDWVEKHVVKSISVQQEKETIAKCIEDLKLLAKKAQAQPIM

[16] = target: T8, Syngr3_IPI:IPI00331579.1 (mouse) (UniProt Q8R191)
T8 sequence (looked up): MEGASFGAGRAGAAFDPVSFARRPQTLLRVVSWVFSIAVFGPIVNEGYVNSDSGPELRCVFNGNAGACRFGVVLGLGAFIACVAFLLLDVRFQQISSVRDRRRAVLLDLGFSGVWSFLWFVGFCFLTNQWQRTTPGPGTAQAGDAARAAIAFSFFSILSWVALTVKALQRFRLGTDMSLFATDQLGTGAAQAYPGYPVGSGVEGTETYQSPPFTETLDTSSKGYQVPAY

Ndufb5_IPI:IPI00132531.1 (mouse), sequence (Q9CQH3 47-189 limits assumed): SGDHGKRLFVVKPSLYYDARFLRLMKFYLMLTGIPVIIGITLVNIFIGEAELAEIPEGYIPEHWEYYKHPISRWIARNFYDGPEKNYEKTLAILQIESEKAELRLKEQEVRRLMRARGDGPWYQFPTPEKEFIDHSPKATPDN
Vsnl1_IPI:IPI00230418.5 (mouse), sequence (P62761 2-191 limits assumed): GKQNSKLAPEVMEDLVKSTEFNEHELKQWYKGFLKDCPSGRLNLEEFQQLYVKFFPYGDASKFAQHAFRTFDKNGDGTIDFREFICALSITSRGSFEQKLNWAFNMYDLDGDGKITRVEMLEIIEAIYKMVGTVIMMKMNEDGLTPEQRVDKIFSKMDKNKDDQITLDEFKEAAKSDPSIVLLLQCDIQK
Tuba4a_IPI:IPI00117350.1 (mouse), sequence (P68368 whole entry): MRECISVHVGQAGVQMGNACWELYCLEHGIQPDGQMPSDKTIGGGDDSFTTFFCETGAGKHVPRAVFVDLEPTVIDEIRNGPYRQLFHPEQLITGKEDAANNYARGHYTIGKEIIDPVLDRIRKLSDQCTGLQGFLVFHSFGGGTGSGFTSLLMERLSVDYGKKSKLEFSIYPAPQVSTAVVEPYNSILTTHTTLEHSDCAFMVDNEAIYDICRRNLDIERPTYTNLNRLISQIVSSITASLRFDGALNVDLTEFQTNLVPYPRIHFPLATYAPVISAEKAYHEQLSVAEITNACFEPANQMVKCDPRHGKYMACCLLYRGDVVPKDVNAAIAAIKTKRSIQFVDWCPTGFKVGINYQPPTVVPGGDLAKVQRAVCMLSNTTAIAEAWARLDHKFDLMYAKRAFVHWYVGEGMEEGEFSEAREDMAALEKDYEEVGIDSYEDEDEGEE
Slc1a2_IPI:IPI00230289.1 (mouse), sequence (P43006 whole entry): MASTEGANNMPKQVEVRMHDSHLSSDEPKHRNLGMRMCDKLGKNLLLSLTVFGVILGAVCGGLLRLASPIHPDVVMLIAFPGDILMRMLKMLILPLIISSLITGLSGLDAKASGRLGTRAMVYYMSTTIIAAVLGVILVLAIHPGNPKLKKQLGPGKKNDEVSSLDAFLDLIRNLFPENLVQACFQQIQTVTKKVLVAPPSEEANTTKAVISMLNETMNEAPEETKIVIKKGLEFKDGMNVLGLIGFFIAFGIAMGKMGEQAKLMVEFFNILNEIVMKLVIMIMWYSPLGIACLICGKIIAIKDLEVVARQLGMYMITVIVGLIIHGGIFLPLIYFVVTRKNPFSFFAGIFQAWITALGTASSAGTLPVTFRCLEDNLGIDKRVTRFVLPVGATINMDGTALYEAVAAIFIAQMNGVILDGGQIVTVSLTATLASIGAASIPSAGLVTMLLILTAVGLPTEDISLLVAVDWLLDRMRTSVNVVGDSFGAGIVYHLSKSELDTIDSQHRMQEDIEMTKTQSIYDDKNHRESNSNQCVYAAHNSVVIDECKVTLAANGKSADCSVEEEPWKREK
GST-Httex1-23Q, sequence (P08515 1-218, tags or fused parts left off): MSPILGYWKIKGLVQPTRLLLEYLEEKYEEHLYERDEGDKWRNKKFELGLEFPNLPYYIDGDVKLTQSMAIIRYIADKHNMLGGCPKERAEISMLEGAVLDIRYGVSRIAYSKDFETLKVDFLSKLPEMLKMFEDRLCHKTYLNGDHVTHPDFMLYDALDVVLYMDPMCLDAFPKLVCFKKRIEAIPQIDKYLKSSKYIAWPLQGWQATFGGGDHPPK
Slc25a1_IPI:IPI00276926.3 (mouse), sequence (Q8JZU2 14-311 limits assumed): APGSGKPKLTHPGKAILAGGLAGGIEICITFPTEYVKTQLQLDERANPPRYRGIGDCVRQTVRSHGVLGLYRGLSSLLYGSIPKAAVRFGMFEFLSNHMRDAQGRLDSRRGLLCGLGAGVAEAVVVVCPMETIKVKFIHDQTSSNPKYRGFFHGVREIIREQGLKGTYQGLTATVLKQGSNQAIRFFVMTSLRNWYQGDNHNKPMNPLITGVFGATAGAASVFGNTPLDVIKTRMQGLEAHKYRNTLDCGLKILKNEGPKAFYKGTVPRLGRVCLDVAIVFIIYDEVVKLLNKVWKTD
mt-Co2_IPI:IPI00131176.1 (mouse), sequence (P00405 whole entry): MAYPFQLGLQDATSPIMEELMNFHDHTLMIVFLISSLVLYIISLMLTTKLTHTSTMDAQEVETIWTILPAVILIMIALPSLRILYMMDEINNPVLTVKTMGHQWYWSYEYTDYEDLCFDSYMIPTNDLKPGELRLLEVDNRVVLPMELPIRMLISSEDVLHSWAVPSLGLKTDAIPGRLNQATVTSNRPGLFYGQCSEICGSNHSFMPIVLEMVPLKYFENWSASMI
Cend1_IPI:IPI00122826.1 (mouse), sequence (Q9JKC6 whole entry): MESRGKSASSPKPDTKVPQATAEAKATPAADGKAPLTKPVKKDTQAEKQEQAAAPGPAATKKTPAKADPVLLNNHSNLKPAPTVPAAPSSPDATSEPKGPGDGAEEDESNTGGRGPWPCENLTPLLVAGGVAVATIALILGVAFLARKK

Substance	No. of total peptides [1]	No. of unique peptides [1]	No. of total peptides [2]	No. of unique peptides [2]	No. of total peptides [3]	No. of unique peptides [3]	No. of total peptides [4]	No. of unique peptides [4]	No. of total peptides [5]	No. of unique peptides [5]	No. of total peptides [6]	No. of unique peptides [6]	No. of total peptides [7]	No. of unique peptides [7]	No. of total peptides [8]	No. of unique peptides [8]	No. of total peptides [9]	No. of unique peptides [9]	No. of total peptides [10]	No. of unique peptides [10]	further results
GST-Httex1-23Q (from UniProt P08515 1-218; P42858 1-88)	6 peptides	3 peptides	3 peptides	3 peptides	1 peptides	1 peptides	1 peptides	1 peptides	1 peptides	1 peptides	3 peptides	3 peptides	2 peptides	2 peptides	1 peptides	1 peptides	1 peptides	1 peptides	1 peptides	1 peptides	No. of total peptides [11]: 2 peptides; No. of unique peptides [11]: 2 peptides; No. of total peptides [12]: 1 peptides; No. of unique peptides [12]: 1 peptides; No. of total peptides [13]: 1 peptides; No. of unique peptides [13]: 1 peptides; No. of total peptides [14]: 1 peptides; No. of unique peptides [14]: 1 peptides; No. of total peptides [15]: 3 peptides; No. of unique peptides [15]: 3 peptides; No. of total peptides [16]: 1 peptides; No. of unique peptides [16]: 1 peptides
GST-Httex1-97Q (from UniProt P08515 1-218; P42858 1-88)	3 peptides	2 peptides	2 peptides	2 peptides	1 peptides	1 peptides	6 peptides	5 peptides	2 peptides	2 peptides	5 peptides	4 peptides	5 peptides	5 peptides	1 peptides	1 peptides	1 peptides	1 peptides	2 peptides	2 peptides	No. of total peptides [11]: 5 peptides; No. of unique peptides [11]: 3 peptides; No. of total peptides [12]: 4 peptides; No. of unique peptides [12]: 3 peptides; No. of total peptides [13]: 2 peptides; No. of unique peptides [13]: 2 peptides; No. of total peptides [14]: 1 peptides; No. of unique peptides [14]: 1 peptides; No. of total peptides [15]: 4 peptides; No. of unique peptides [15]: 4 peptides; No. of total peptides [16]: 2 peptides; No. of unique peptides [16]: 2 peptides
